Consider 29 molecules from patent US20220259593A1, “CONTROL OF MAMMALIAN GENE DOSAGE USING CRISPR” (The Regents of the University of California, priority 2019, published 2022).

In the data set the test system is K562 CRISPRi cells. Description: Constant region variant library pooled growth screen, K562. The data set is classed as cell-based, human. The following applies: sgRNA constant region variants; activity relative to the original, un-modified constant region cr995. The method, boiled down:
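Cells were selected with puromycin for 2 days and then kept in RPMI-1640 spinner cultures, with duplicates handled separately. Targeting sequences comprised 3 sgRNAs per essential gene for 10 genes plus six non-targeting controls. Activities were normalized against pairing with the unmodified scaffold.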

B1: cr293 (nucleic acid)
guide: GTTTAAGAGCTAAGCTGGAAACAGCATAGCAAGTTTAAATAAGGCTAGTCCGTTATCAACTTGAAAAAGTGGGACCAAGTTGGTCCT
modifications: listed as DNA, chemistry not fully specified
As to B1, the Mean relative activity is listed as 1.052.

B2: cr650 (nucleic acid)
guide: GTTTAAGAGCTAAGCTGGAAACAGCATAGCAAGTTTAAATAAGGCTAGTCCGTTATGAACTTGAAAAAGTGGCACCGAGTCGGTGCT
modifications: listed as DNA, chemistry not fully specified
In turn, B2 had a Mean relative activity of 0.6158.

B3: cr227 (nucleic acid)
guide: GTTTAAGAGCTAAGCTGGAAACAGCATAGCAAGTTTAAATAAGGCTAGTCCGCTAACCACTTGAAAAAGTGGCACCGAGTCGGTGCT
modifications: listed as DNA, chemistry not fully specified
As to B3, the Mean relative activity is given as 0.6062.

B4: cr917 (nucleic acid)
guide: GTTTAAGAGCTAAGCTGGAAACAGCATAGCAAGTTTAAATAAGGTTAATCCGTTATCAACTTGAAAAAGTGGCATCTAGTAGATGCT
modifications: listed as DNA, chemistry not fully specified
With B4, the Mean relative activity was determined as 0.6521.

B5: cr815 (nucleic acid)
guide: GTTTAAGAGCTAAGCTGGAAACAGCATAGCAAGTTTAAATAAGGCTAGTCCGTTATCAACTTGAAAAAGTGGCACCGAGTCGATGCT
modifications: listed as DNA, chemistry not fully specified
B5 yielded a Mean relative activity of 0.6583.

B6: cr212 (nucleic acid)
guide: GTTTAAGAGCTAAGCTGGAAACAGCATAGCAAATTTAAATAAGGCTAGTCCGTTATCAACTTGAAGAAGTGGCACCGAGTCGGTGCT
modifications: listed as DNA, chemistry not fully specified
Consider B6, for which the Mean relative activity stood at 0.6035.

B7: cr639 (nucleic acid)
guide: GTTTAAGAGCTAAGCTGGAAACAGCATAGCAAGTTTAAATAAGGATATTCCGTTATCAACTTGAAAAAGTGGCACCGAGTCGGTGCT
modifications: listed as DNA, chemistry not fully specified
Regarding B7, the Mean relative activity stood at 0.6057.

B8: cr549 (nucleic acid)
guide: GTTTAAGAGCTAAGCTGGAAACAGCATAGCAAGTTTAAATAAGGCTAGTCCGTTATCAACCTGAAAAGGTGGCACCGAGTCGGTGCT
modifications: listed as DNA, chemistry not fully specified
As to B8, the Mean relative activity amounted to 1.051.

B9: cr861 (nucleic acid)
guide: GTTTAAGAGCTAAGCTGGAAACAGCATAGCAAGTTTAAATAAGGCTAGTCCGTTAGCAACTTGAAAAAGTAGCACCGAGTCGGTGCT
modifications: listed as DNA, chemistry not fully specified
B9 displayed a Mean relative activity of 0.6319.

B10: cr451 (nucleic acid)
guide: GTTTAAGAGCTAAGCTGGAAACAGCATAGCAAGTTTAAATAAGGATATTCCGTTATCAACTTGAAAAAGTGGCTCCGAGTCGGAGCT
modifications: listed as DNA, chemistry not fully specified
Regarding B10, the Mean relative activity amounted to 0.6053.

B11: cr442 (nucleic acid)
guide: GTTTAAGAGCTAAGCTGGAAACAGCATAGCAAGCTTAAATAAGGCTAGTCCGTTATCAACCTGAAAAGGTGGCACCGAGTCGGTGCT
modifications: listed as DNA, chemistry not fully specified
Turning to B11, the Mean relative activity is reported as 0.6169.

B12: cr913 (nucleic acid)
guide: GTTTAAGAGCTAAGCTGGAAACAGCATAGCAAGTTTAAACAAGGCTAGTCCGTTATCAACTTGAAAAAGTGGCACCGAGTCGGTGCT
modifications: listed as DNA, chemistry not fully specified
Consider B12, for which the Mean relative activity turned out to be 0.633.

B13: cr441 (nucleic acid)
guide: GTTTAAGAGCTAAGCTGGAAACAGCATAGCAAGTTTAAATAAGGCTAGTCCGTTATAAACTTGAAAAAGTGGCACCGAGTCGGTGCT
modifications: listed as DNA, chemistry not fully specified
In turn, B13 displayed a Mean relative activity of 0.622.

B14: cr937 (nucleic acid)
guide: GTTTAAGAGCTAAGCTGGAAACAGCATAGCAAGTTTAAATAAGGGTACTCCGTTATCAACTCGAAAGAGTGGCACAGAGTCTGTGCT
modifications: listed as DNA, chemistry not fully specified
As to B14, the Mean relative activity came to 0.6137.

B15: cr667 (nucleic acid)
guide: GTTTAAGAGCTAAGCTGGAAACAGCATAGCAAGCTTAAATAAGGCTAGTCCGTTATCAACTCGAAAGAGTGGCACCGAGTCGGTGCT
modifications: listed as DNA, chemistry not fully specified
With B15, the Mean relative activity came to 0.6533.

B16: cr017 (nucleic acid)
guide: GTTTAGGAGCTAAGCTGGAAACAGCATAGCAAGTTTAAATAAGGCTAGTCCGTTATCAACTTGAAAAAGTGGCACCGAGTCGGTGCT
modifications: listed as DNA, chemistry not fully specified
B16 gave a Mean relative activity of 0.639.

B17: cr746 (nucleic acid)
guide: GTTTAAGAGCTAAGCTGGAAACAGCATAGCAAATTTAAATAAGGCTAGTCCGTTATCAACTTGACAAAGTGGCACCGAGTCGGTGCT
modifications: listed as DNA, chemistry not fully specified
B17 displayed a Mean relative activity of 0.629.

B18: cr844 (nucleic acid)
guide: GTTTAAGAGCTAAGCTGGAAACAGCATAGCAAGTTTAAATAAGGCTAGTCCGTTATCAGCTTGAAAAAGCGGCATTGAGTCAATGCT
modifications: listed as DNA, chemistry not fully specified
The molecule B18 came in with a Mean relative activity of 0.6346.

B19: cr766 (nucleic acid)
guide: GTTTAAGAGCTAAGCTGGAAACAGCATAGCAAGTTTAAATAAGGCTAGTCCGTTATCAACATGAAAATGTGGCACCGAGTCGGTGCT
modifications: listed as DNA, chemistry not fully specified
The molecule B19 returned a Mean relative activity of 1.051.

B20: cr001 (nucleic acid)
guide: ATTTAAGAGCTAAGCTGGAAACAGCATAGCAAGTTTAAATAAGGCTAGTCCGTTATCAACTTGAAAAAGTGGCACCGAGTCGGTGCT
modifications: listed as DNA, chemistry not fully specified
With B20, the Mean relative activity was 0.6312.

B21: cr086 (nucleic acid)
guide: GTTTACTAGCTAAGCTGGAAACAGCATAGCAAGTTTAAATAAGGCTAGTCCGTTATCAACTTGAAAAAGTGGCACCGAGTCGGTGCT
modifications: listed as DNA, chemistry not fully specified
In the case of B21, the Mean relative activity came to 0.614.

B22: cr679 (nucleic acid)
guide: GTTTAAGAGCTAAGCTGGAAACAGCATATCAAGTTTAAATAAGGCTAGTCCGGTATCAACTTGAAAAAGTGGCACCGAGTCGGTGCT
modifications: listed as DNA, chemistry not fully specified
In the case of B22, the Mean relative activity was 0.6292.

B23: cr189 (nucleic acid)
guide: GTTTAAGAGCTAAGCTGGAAACAGCATAGCAAGTTTAAATAAGGCTAGTCCGTTATCAACTTGAAAAAGTGGCACCAAGTCGGTGCT
modifications: listed as DNA, chemistry not fully specified
With B23, the Mean relative activity is given as 0.627.

B24: cr026 (nucleic acid)
guide: GTTTGATAGCTAAGCTGGAAACAGCATAGCAAGTTTAAATAAGGCTAGTCCGTTATCAACTTGAAAAAGTGGCACCGAGTCGGTGCT
modifications: listed as DNA, chemistry not fully specified
Regarding B24, the Mean relative activity was 0.6314.

B25: cr213 (nucleic acid)
guide: GTTTAAGAGCTAAGCTGGAAACAGCATAACAAGTTTAAATAGGGCTAGTCCGTTATCAACTTGAGAAAGTGGCACCGAGTCGGTGCT
modifications: listed as DNA, chemistry not fully specified
Consider B25, for which the Mean relative activity is 0.6325.

B26: cr699 (nucleic acid)
guide: GTTTAAGAGCTAAGCTGGAAACAGCATAGCAAGTTTAAATAAGGGTACTCCGTTATCAACGCGAAAGCGTGGCACCGAGTCGGTGCT
modifications: listed as DNA, chemistry not fully specified
In turn, B26 displayed a Mean relative activity of 0.6628.

B27: cr793 (nucleic acid)
guide: GTTTAAGAGCTAAGCTGGAAACAGCATAGCAAGTTTAAATAAGGCTAGTCCGTTATCAACTTGAAAAAGTGGCACCGAGTCGTTGCT
modifications: listed as DNA, chemistry not fully specified
As for B27, the Mean relative activity worked out at 0.6343.

B28: cr885 (nucleic acid)
guide: GTTTAAGAGCTAAGCTGGAAACAGCATAGCCAGTTTAAATAAGGCTAGTCCGTTATCAACTTGAAAAAGTTGCACCGAGTCGGTGCT
modifications: listed as DNA, chemistry not fully specified
Take B28: the Mean relative activity was determined as 0.6498.

B29: cr406 (nucleic acid)
guide: GTTTAAGAGCTAAGCTGGAAACAGCATAGCAAGTTTAAATAAGGCTAGTCCGTTATTAACTTGAAAAAGTGGCACCGAGTCGGTGCT
modifications: listed as DNA, chemistry not fully specified
B29: the Mean relative activity was found to be 0.6285.
